Results as given in US10456451B2, “Protease-resistant mutants of stromal cell derived factor-1 in the repair of tissue damage” (Mesoblast International Sàrl, priority 2010, dated 2019).

Biological target: T1, MMP-2 (Homo sapiens, UniProt P08253)
T1 construct: purchased R&D Systems
T1 sequence (P08253 110-660): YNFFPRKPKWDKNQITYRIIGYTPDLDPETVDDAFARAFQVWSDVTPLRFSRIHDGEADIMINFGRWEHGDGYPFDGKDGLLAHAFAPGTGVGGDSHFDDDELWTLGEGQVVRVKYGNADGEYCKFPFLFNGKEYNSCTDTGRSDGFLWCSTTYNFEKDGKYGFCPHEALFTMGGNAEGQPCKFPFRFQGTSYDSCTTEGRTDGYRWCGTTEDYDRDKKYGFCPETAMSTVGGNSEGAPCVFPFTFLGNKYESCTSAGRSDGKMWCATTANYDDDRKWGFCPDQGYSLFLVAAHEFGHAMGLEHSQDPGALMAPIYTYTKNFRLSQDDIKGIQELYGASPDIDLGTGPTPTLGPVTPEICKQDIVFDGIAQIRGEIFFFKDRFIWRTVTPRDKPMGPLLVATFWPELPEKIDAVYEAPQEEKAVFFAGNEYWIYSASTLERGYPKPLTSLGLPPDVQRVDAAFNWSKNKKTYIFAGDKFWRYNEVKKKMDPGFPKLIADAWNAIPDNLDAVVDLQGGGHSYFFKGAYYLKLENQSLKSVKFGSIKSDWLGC
Assay: MMP-2 cleavage of Sumo fusion proteins, SDS-PAGE
Assay type: biochemical
Procedure: Human recombinant MMP-2 (R&D Systems) was activated for 1 hour with 4-aminophenylmercuric acetate (APMA, 1 mM) at 37° C. 4 μg of Sumo-SSDF-1-RAD or Sumo-SSDF-1(S4V)-RAD was incubated for 1 hour to 48 hours at 21° C. with 50 ng of activated MMP-2 in TCNB buffer (50 mM Tris, pH 7.5, 10 mM CaCl2, 150 mM NaCl, 0.05% Brij-35). Sample loading buffer (Invitrogen) and 2-mercaptoethanol (0.5 M, final concentration) were added, and samples were boiled for 5 minutes and run on a 10% Bis-Tris gel. Proteins used for this experiment were obtained after cation-exchange chromatography, but were neither cleaved by Sumo-protease nor purified by RPC-HPLC.

rate of cleavage lower than SDF-1: at least 48 times
Substance: SDF-1(S4V): SDF-1 with Ser→Val at position 4, SEQ ID NO:65
